Measurements: doi:10.1101/722512 (bioRxiv, 2019)

Molecular target: the molecule itself
Assay: native MS

B1: Erwinia ligand-gated ion channel (ELIC), wild type (natural protein)
chain: APADNAADARPVDVSVSIFINKIYGVNTLEQTYKVDGYIVAQWTGKPRKTPGDKPLIVENTQIERWINNGLWVPALEFINVVGSPDTGNKRLMLFPDGRVIYNARFLGSFSNDMDFRLFPFDRQQFVLELEPFSYNNQQLRFSDIQVYTENIDNEEIDEWWIRKASTHISDIRYDHLSSVQPNQNEFSRITVRIDAVRNPSYYLWSFILPLGLIIAASWSVFWLESFSERLQTSFTLMLTVVAYAFYTSNILPRLPYTTVIDQMIIAGYGSIFAAILLIIFAHHRQAMGVEDDLLIQRCRLAFPLGFLAIGCVLVIRGITL
stoichiometry N: 5
